# According to paper PMC9520404, “G-quadruplexes formation within the promoter of TEAD4 oncogene and their interaction with Vimentin”:
# Where a chain is given by its changes, count along the chain named.
# B1: TEAD4-far (structured_DNA)
# DNA: CGGGGCGGGGCGGGGCCGGGC
# B2: TEAD4-full (structured_DNA)
# DNA: CGGGCGGGCGAGGGGCCGGGCCGCCGGGGCGGGGCGGGGCCGGGC
# B3: TEAD4-full-2TT (structured_DNA)
# DNA: B2 DNA with C21T, C22T, C24T, C25T
# B4: TEAD4-near (structured_DNA)
# DNA: CGGGCGGGCGAGGGGCCGGGC
# Experiments:
# Vimentin [1] = molecular target: T1, Vimentin (human, UniProt P08670 1-466); assay: EMSA; 150 mM KCl; 8 uM Vimentin, 500 nM DNA; 5 mM Tris pH 8.4, 150 mM KCl, 1 h at room temperature; 1.5% agarose in 1x TBE + 10 mM KCl, run at 4 C; details: protein: recombinant
# T1 sequence (P08670 whole entry): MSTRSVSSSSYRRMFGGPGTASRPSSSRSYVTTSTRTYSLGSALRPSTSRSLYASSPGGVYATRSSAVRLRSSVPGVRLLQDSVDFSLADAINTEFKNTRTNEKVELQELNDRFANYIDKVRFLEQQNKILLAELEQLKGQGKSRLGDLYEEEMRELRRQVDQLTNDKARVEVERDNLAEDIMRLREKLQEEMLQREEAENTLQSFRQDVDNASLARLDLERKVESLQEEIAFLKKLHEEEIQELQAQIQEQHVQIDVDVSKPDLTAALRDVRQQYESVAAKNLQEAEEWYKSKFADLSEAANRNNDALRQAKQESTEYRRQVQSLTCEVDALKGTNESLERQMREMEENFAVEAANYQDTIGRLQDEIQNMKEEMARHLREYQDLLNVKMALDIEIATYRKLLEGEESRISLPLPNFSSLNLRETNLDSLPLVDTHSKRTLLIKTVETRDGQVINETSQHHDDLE
# Vimentin [2] = molecular target: T1, Vimentin; assay: EMSA; DNA annealed in 150 mM KCl; 8 uM Vimentin, 500 nM DNA; 5 mM Tris pH 8.4, 150 mM KCl, 1 h at room temperature; 1.5% agarose in 1x TBE + 10 mM KCl, run at 4 C; details: protein: recombinant; parallel G4-repeat after annealing in 150 mM KCl
# Vimentin [3] = molecular target: T1, Vimentin; assay: EMSA; DNA annealed in 150 mM KCl; no free DNA left; 8 uM Vimentin, 500 nM DNA; 5 mM Tris pH 8.4, 150 mM KCl, 1 h at room temperature; 1.5% agarose in 1x TBE + 10 mM KCl, run at 4 C; details: protein: recombinant; parallel G4-repeat
binder,measurement,setting,value
B1,binding result,"Vimentin [1]; G4, parallel and antiparallel components",no binding
B2,binding result,Vimentin [2],binds
B3,binding result,Vimentin [3],binds
B4,binding result,"Vimentin [1]; intramolecular G4, mainly antiparallel",no binding
